Experimental data from the supplement of paper PMC10567573.

B1: CLK3 (parent)
chain: FGEDYYGPSRSRHRRRSRERGPYR

Variants of: B1
Assay: protein stability index of a GFP-peptide fusion (GPS, HEK-293T) (PSI 1-6); higher = more stable
Conditions: c terminus: a fixed tail appended
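Note: lentivirally expressed fusions sorted by FACS into six bins by GFP to DsRed ratio, PSI derived from sequencing read proportions per bin multiplied by bin number.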

For FGEDYYGPSRSRHTRRSRERGPYR [R14T], which protein stability index is on record?
The protein stability index was 2.42.

With FGEDYYGPSRSRHFRRSRERGPYR [R14F] as the variant, how does the protein stability index read?
The protein stability index was 2.83.

With FGEDYYGPSRSRHCRRSRERGPYR [R14C] as the variant, how does the protein stability index read?
Its protein stability index is 1.85.

Which protein stability index does the source give for FGEDYYGPSRSRHIRRSRERGPYR [R14I] here?
The protein stability index was 2.41.

For FGEDYYGPSRSRHARRSRERGPYR [R14A], which protein stability index is on record?
Its protein stability index is 1.88.

For FGEDYYGPSRSRHDRRSRERGPYR [R14D], which protein stability index is on record?
Its protein stability index is 2.31.

Which protein stability index does the source give for FGEDYYGPSRSRHHRRSRERGPYR [R14H] here?
Its protein stability index is 2.44.

For FGEDYYGPSRSRHKRRSRERGPYR [R14K], which protein stability index is on record?
Its protein stability index is 3.03.

For FGEDYYGPSRSRHSRRSRERGPYR [R14S], which protein stability index is on record?
Its protein stability index is 2.19.

With FGEDYYGPSRSRHNRRSRERGPYR [R14N] as the variant, how does the protein stability index read?
Its protein stability index is 2.89.

For FGEDYYGPSRSRHGRRSRERGPYR [R14G], which protein stability index is on record?
The protein stability index was 2.62.

Which protein stability index does the source give for FGEDYYGPSRSRHVRRSRERGPYR [R14V] here?
The protein stability index was 2.22.

Which protein stability index does the source give for FGEDYYGPSRSRHWRRSRERGPYR [R14W] here?
The protein stability index was 3.15.

Which protein stability index does the source give for FGEDYYGPSRSRHYRRSRERGPYR [R14Y] here?
The protein stability index was 2.02.

Which protein stability index does the source give for FGEDYYGPSRSRHMRRSRERGPYR [R14M] here?
The protein stability index was 2.13.

With FGEDYYGPSRSRHPRRSRERGPYR [R14P] as the variant, how does the protein stability index read?
The protein stability index was 2.08.

For FGEDYYGPSRSRHQRRSRERGPYR [R14Q], which protein stability index is on record?
Its protein stability index is 2.25.

For FGEDYYGPSRSRHLRRSRERGPYR [R14L], which protein stability index is on record?
Its protein stability index is 2.27.

For FGEDYYGPSRSRHERRSRERGPYR [R14E], which protein stability index is on record?
The protein stability index was 2.66.

Which protein stability index does the source give for FGEDYYRPSRSRHRRRSRERGPYR [G7R] here?
The protein stability index was 3.07.

Which protein stability index does the source give for FGEDYYSPSRSRHRRRSRERGPYR [G7S] here?
The protein stability index was 3.25.

Which protein stability index does the source give for FGEDYYMPSRSRHRRRSRERGPYR [G7M] here?
Its protein stability index is 3.06.

With FGEDYYLPSRSRHRRRSRERGPYR [G7L] as the variant, how does the protein stability index read?
Its protein stability index is 2.96.

Which protein stability index does the source give for FGEDYYNPSRSRHRRRSRERGPYR [G7N] here?
Its protein stability index is 2.06.

With FGEDYYIPSRSRHRRRSRERGPYR [G7I] as the variant, how does the protein stability index read?
Its protein stability index is 4.23.

Which protein stability index does the source give for FGEDYYQPSRSRHRRRSRERGPYR [G7Q] here?
The protein stability index was 2.82.

For FGEDYYYPSRSRHRRRSRERGPYR [G7Y], which protein stability index is on record?
The protein stability index was 2.78.

Which protein stability index does the source give for FGEDYYEPSRSRHRRRSRERGPYR [G7E] here?
The protein stability index was 4.32.

Which protein stability index does the source give for FGEDYYCPSRSRHRRRSRERGPYR [G7C] here?
Its protein stability index is 2.95.

For FGEDYYDPSRSRHRRRSRERGPYR [G7D], which protein stability index is on record?
Its protein stability index is 3.27.

For FGEDYYWPSRSRHRRRSRERGPYR [G7W], which protein stability index is on record?
The protein stability index was 2.06.

With FGEDYYTPSRSRHRRRSRERGPYR [G7T] as the variant, how does the protein stability index read?
Its protein stability index is 3.53.

With FGEDYYAPSRSRHRRRSRERGPYR [G7A] as the variant, how does the protein stability index read?
The protein stability index was 3.32.

With FGEDYYHPSRSRHRRRSRERGPYR [G7H] as the variant, how does the protein stability index read?
The protein stability index was 2.07.

Which protein stability index does the source give for FGEDYYVPSRSRHRRRSRERGPYR [G7V] here?
The protein stability index was 4.13.

With FGEDYYKPSRSRHRRRSRERGPYR [G7K] as the variant, how does the protein stability index read?
The protein stability index was 3.71.

With FGEDYYGSSRSRHRRRSRERGPYR [P8S] as the variant, how does the protein stability index read?
The protein stability index was 2.38.

With FGEDYYGFSRSRHRRRSRERGPYR [P8F] as the variant, how does the protein stability index read?
Its protein stability index is 1.74.

For FGEDYYGQSRSRHRRRSRERGPYR [P8Q], which protein stability index is on record?
The protein stability index was 1.59.

Which protein stability index does the source give for FGEDYYGNSRSRHRRRSRERGPYR [P8N] here?
Its protein stability index is 2.32.

Which protein stability index does the source give for FGEDYYGHSRSRHRRRSRERGPYR [P8H] here?
Its protein stability index is 1.61.

Which protein stability index does the source give for FGEDYYGGSRSRHRRRSRERGPYR [P8G] here?
Its protein stability index is 2.3.

For FGEDYYGTSRSRHRRRSRERGPYR [P8T], which protein stability index is on record?
Its protein stability index is 2.61.

Which protein stability index does the source give for FGEDYYGDSRSRHRRRSRERGPYR [P8D] here?
The protein stability index was 1.92.

With FGEDYYGYSRSRHRRRSRERGPYR [P8Y] as the variant, how does the protein stability index read?
The protein stability index was 2.99.

Which protein stability index does the source give for FGEDYYGRSRSRHRRRSRERGPYR [P8R] here?
Its protein stability index is 1.44.

Which protein stability index does the source give for FGEDYYGASRSRHRRRSRERGPYR [P8A] here?
The protein stability index was 1.71.

For FGEDYYGISRSRHRRRSRERGPYR [P8I], which protein stability index is on record?
The protein stability index was 2.19.

With FGEDYYGVSRSRHRRRSRERGPYR [P8V] as the variant, how does the protein stability index read?
The protein stability index was 1.42.

Which protein stability index does the source give for FGEDYYGESRSRHRRRSRERGPYR [P8E] here?
The protein stability index was 2.56.

With FGEDYYGLSRSRHRRRSRERGPYR [P8L] as the variant, how does the protein stability index read?
The protein stability index was 1.51.

With FGEDYYGWSRSRHRRRSRERGPYR [P8W] as the variant, how does the protein stability index read?
The protein stability index was 1.53.

For FGEDYYGKSRSRHRRRSRERGPYR [P8K], which protein stability index is on record?
The protein stability index was 1.58.

With FGEDYYGCSRSRHRRRSRERGPYR [P8C] as the variant, how does the protein stability index read?
The protein stability index was 2.48.

With FGEDYIGPSRSRHRRRSRERGPYR [Y6I] as the variant, how does the protein stability index read?
Its protein stability index is 4.38.

Which protein stability index does the source give for FGEDYMGPSRSRHRRRSRERGPYR [Y6M] here?
Its protein stability index is 4.17.

Which protein stability index does the source give for FGEDYNGPSRSRHRRRSRERGPYR [Y6N] here?
Its protein stability index is 4.47.

For FGEDYVGPSRSRHRRRSRERGPYR [Y6V], which protein stability index is on record?
The protein stability index was 4.02.

Which protein stability index does the source give for FGEDYPGPSRSRHRRRSRERGPYR [Y6P] here?
The protein stability index was 4.78.

For FGEDYQGPSRSRHRRRSRERGPYR [Y6Q], which protein stability index is on record?
Its protein stability index is 5.36.

With FGEDYGGPSRSRHRRRSRERGPYR [Y6G] as the variant, how does the protein stability index read?
The protein stability index was 5.15.

With FGEDYHGPSRSRHRRRSRERGPYR [Y6H] as the variant, how does the protein stability index read?
Its protein stability index is 4.07.

For FGEDYLGPSRSRHRRRSRERGPYR [Y6L], which protein stability index is on record?
The protein stability index was 3.98.

Which protein stability index does the source give for FGEDYRGPSRSRHRRRSRERGPYR [Y6R] here?
Its protein stability index is 4.67.

For FGEDYCGPSRSRHRRRSRERGPYR [Y6C], which protein stability index is on record?
Its protein stability index is 4.75.

Which protein stability index does the source give for FGEDYAGPSRSRHRRRSRERGPYR [Y6A] here?
Its protein stability index is 4.61.

With FGEDYDGPSRSRHRRRSRERGPYR [Y6D] as the variant, how does the protein stability index read?
Its protein stability index is 4.59.

For FGEDYSGPSRSRHRRRSRERGPYR [Y6S], which protein stability index is on record?
Its protein stability index is 4.96.

For FGEDYWGPSRSRHRRRSRERGPYR [Y6W], which protein stability index is on record?
Its protein stability index is 2.52.

Which protein stability index does the source give for FGEDYEGPSRSRHRRRSRERGPYR [Y6E] here?
Its protein stability index is 4.84.

For FGEDYTGPSRSRHRRRSRERGPYR [Y6T], which protein stability index is on record?
The protein stability index was 4.27.

With FGEDYFGPSRSRHRRRSRERGPYR [Y6F] as the variant, how does the protein stability index read?
The protein stability index was 2.4.

With FGEDYKGPSRSRHRRRSRERGPYR [Y6K] as the variant, how does the protein stability index read?
Its protein stability index is 5.1.

With FGEDYYGPSPSRHRRRSRERGPYR [R10P] as the variant, how does the protein stability index read?
Its protein stability index is 2.82.

For FGEDYYGPSGSRHRRRSRERGPYR [R10G], which protein stability index is on record?
Its protein stability index is 3.15.

For FGEDYYGPSQSRHRRRSRERGPYR [R10Q], which protein stability index is on record?
The protein stability index was 2.7.

Which protein stability index does the source give for FGEDYYGPSSSRHRRRSRERGPYR [R10S] here?
The protein stability index was 3.

With FGEDYYGPSDSRHRRRSRERGPYR [R10D] as the variant, how does the protein stability index read?
Its protein stability index is 2.75.

With FGEDYYGPSFSRHRRRSRERGPYR [R10F] as the variant, how does the protein stability index read?
The protein stability index was 2.31.

With FGEDYYGPSWSRHRRRSRERGPYR [R10W] as the variant, how does the protein stability index read?
The protein stability index was 2.85.

Which protein stability index does the source give for FGEDYYGPSLSRHRRRSRERGPYR [R10L] here?
The protein stability index was 3.03.

With FGEDYYGPSVSRHRRRSRERGPYR [R10V] as the variant, how does the protein stability index read?
The protein stability index was 2.52.

For FGEDYYGPSCSRHRRRSRERGPYR [R10C], which protein stability index is on record?
Its protein stability index is 2.45.

Which protein stability index does the source give for FGEDYYGPSYSRHRRRSRERGPYR [R10Y] here?
The protein stability index was 2.12.

With FGEDYYGPSTSRHRRRSRERGPYR [R10T] as the variant, how does the protein stability index read?
The protein stability index was 2.41.

For FGEDYYGPSASRHRRRSRERGPYR [R10A], which protein stability index is on record?
Its protein stability index is 2.9.

For FGEDYYGPSMSRHRRRSRERGPYR [R10M], which protein stability index is on record?
The protein stability index was 3.16.

With FGEDYYGPSESRHRRRSRERGPYR [R10E] as the variant, how does the protein stability index read?
The protein stability index was 3.36.

Which protein stability index does the source give for FGEDYYGPSNSRHRRRSRERGPYR [R10N] here?
The protein stability index was 2.63.

Which protein stability index does the source give for FGEDYYGPSHSRHRRRSRERGPYR [R10H] here?
Its protein stability index is 3.62.

With FGEDYYGPSKSRHRRRSRERGPYR [R10K] as the variant, how does the protein stability index read?
Its protein stability index is 2.58.

For FGEDYYGPSISRHRRRSRERGPYR [R10I], which protein stability index is on record?
Its protein stability index is 2.64.

With FGEDYYGPSRSYHRRRSRERGPYR [R12Y] as the variant, how does the protein stability index read?
Its protein stability index is 2.58.

With FGEDYYGPSRSEHRRRSRERGPYR [R12E] as the variant, how does the protein stability index read?
The protein stability index was 2.58.
